# Source: article PMC7217734 (Journal of biomolecular structure & dynamics, 2019)
# Target: peptide 91a (human)
# Experiment: ITC
binder,measurement,value
EELARLEREYQDLLNVKMALDIEIATYRKLLEALESR [peptide 374a],Kd,3000 nM
same,stoichiometry N,~1
